This is an account of results in article PMC5729044.

The target in the assay is 1wa3-wt, the wild-type trimeric aldolase from which I3-01 was derived. Description: SEC.

As for “1wa3-wt, the wild-type trimeric aldolase from which I3-01 was derived (enzyme)”, the stoichiometry N came to 3.
